Laboratory results: patent US20210095027A1 (Xencor, published 2021)

Biological target: T1, human CD20 (human, UniProt P11836 1-297)
T1 sequence (looked up): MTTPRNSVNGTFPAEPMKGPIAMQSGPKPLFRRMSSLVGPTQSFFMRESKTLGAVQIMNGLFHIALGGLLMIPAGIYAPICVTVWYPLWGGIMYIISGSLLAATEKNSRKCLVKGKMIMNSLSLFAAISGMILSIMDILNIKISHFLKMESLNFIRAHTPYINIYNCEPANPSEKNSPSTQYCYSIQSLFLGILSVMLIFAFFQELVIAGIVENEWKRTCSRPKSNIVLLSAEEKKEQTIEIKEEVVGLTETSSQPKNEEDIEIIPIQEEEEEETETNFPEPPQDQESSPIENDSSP
Test: cell-based or functional assay

B1: XENP13676 (bispecific antibody)
chain 1: QVQLVQSGAEVKKPGASVKVSCKASGYTFTSYNMHWVRQAPGQGLEWMGAIYPGNGDTSYNQKFQGRVTITADKSISTAYMELSSLRSEDTAVYYCARSTYYGGDWYFNVWGAGTLVTVSSASTKGPSVFPLAPSSKSTSGGTAALGCLVKDYFPEPVTVSWNSGALTSGVHTFPAVLQSSGLYSLSSVVTVPSSSLGTQTYICNVNHKPSDTKVDKKVEPKSCDKTHTCPPCPAPPVAGPSVFLFPPKPKDTLMISRTPEVTCVVVDVKHEDPEVKFNWYVDGVEVHNAKTKPREEEYNSTYRVVSVLTVLHQDWLNGKEYKCKVSNKALPAPIEKTISKAKGQPREPQVYTLPPSREEMTKNQVSLTCDVSGFYPSDIAVEWESDGQPENNYKTTPPVLDSDGSFFLYSKLTVDKSRWEQGDVFSCSVMHEALHNHYTQKSLSLSPGK
chain 2: not shown
light: QIVLTQSPSSLSASVGDRVTITCRASSSVSYIHWFQQKPGKSPKPLIYATSNLASGVPVRFSGSGSGTDYTLTISSLQPEDFATYYCQQWTSNPPTFGGGTKVEIKRTVAAPSVFIFPPSDEQLKSGTASVVCLLNNFYPREAKVQWKVDNALQSGNSQESVTEQDSKDSTYSLSSTLTLSKADYEKHKVYACEVTHQGLSSPVTKSFNRGEC
- EC50 of Jeko-1 target cell killing (RTCC) in the absence of rituximab: 0.024 µg/mL
- EC50 of Jeko-1 target cell killing (RTCC) in the presence of 3 µg/ml rituximab: 0.051 µg/mL
- EC50 of Jeko-1 target cell killing (RTCC) in the presence of 10 µg/ml rituximab: 0.093 µg/mL
- EC50 of Jeko-1 target cell killing (RTCC) in the presence of 30 µg/ml rituximab: 0.162 µg/mL
- EC50 of Jeko-1 target cell killing (RTCC) in the presence of 100 µg/ml rituximab: 0.387 µg/mL
- EC50 of RTCC against Ramos cells with purified T cells from six healthy donors: 0.0053 to 0.0143 µg/mL
